Measured values from article PMC10304477.

Columns and labels:
[1] = biological target: extracellular domain of the S protein of SARS-CoV-2 Omicron BA.1 (BA.1-S) (SARS-CoV-2 Omicron BA.1); assay: cryo-EM structure
[2] = biological target: extracellular domain of the S protein of SARS-CoV-2 Omicron BA.3 (BA.3-S) (SARS-CoV-2 Omicron BA.3); assay: cryo-EM structure

## peptidase domain (PD) of human ACE2 (from UniProt Q9BYF1 19-615) (domain or fragment)
[1]
  stoichiometry N (ACE2-PD per S trimer): 2

## extracellular domain of the S protein of SARS-CoV-2 Omicron BA.3 (BA.3-S) (domain or fragment)
[2]
  stoichiometry N: 3

## extracellular domain of the S protein of SARS-CoV-2 Omicron BA.1 (BA.1-S) (domain or fragment)
[1]
  stoichiometry N: 3
